The values below come from publication PMC5286426, “The Calcium-Dependent Switch Helix of L-Plastin Regulates Actin Bundling” (Scientific Reports, 2017).

Entries after “also recorded” stand apart in the source; their conditions may differ.

The subject of assay [1] is Human platelet actin (F-actin). Briefly: Actin-bundling assay, low-speed centrifugation and SDS-PAGE. Type of assay: biochemical. To be noted: 6 µM F-actin, n = 3 (Fig. 4a); for Amount of actin found in the pellet: 3 µM LPL construct, pH 7.5, room temperature, 1 h; for Amount of LPL found in the pellet: 3 µM LPL. The procedure:
Human platelet actin (Cytoskeleton) was dissolved in 2 mM Tris pH7.5, 0.2 mM CaCl2, 0.2 mM ATP, and 0.5 mM DTT (Buffer G). The actin was then polymerized overnight at 4 °C in 20 mM Tris pH 7.5, 100 mM KCl, and 1 mM MgCl2. Spontaneously bundled F-actin was removed by centrifugation at 12,000 g for 15 min prior to the assay. F-actin and LPL constructs were incubated at room temperature for 1 h in 50 uL of the buffer containing 20 mM Tris pH7.5, 100 mM KCl, 1 mM MgCl2, 6 µM F-actin, 3 µM LPL construct, 0.1 mM CaCl2, 0.1 mM ATP with and without 5 mM EGTA. LPL induced actin bundles were sedimented by centrifugation at 12,000 g for 15 min and the supernatant was carefully removed. The amount of actin and/or LPL construct in the pellet was analyzed by SDS-PAGE. The effect of the presence of 12 µM melittin peptide on actin-bundling was also examined.

The test system of a further assay is CaM. As to conditions: CaM-pull down; cited from earlier work. The source says:
The H5 region of LPL was previously predicted as a potential binding site for CaM[48]. Indeed this sequence produced a high theoretically predicted score for CaM binding. […] Therefore, we have tested the interaction between EF-H5 and CaM in the presence of EDTA. However, ...

For assay [2] the following is noted: cited from earlier work. The source says:
L-plastin (LPL) is a 70 kDa Ca^2+- and actin-binding protein that plays an important role in both the adaptive and innate immune system. Among the three isoforms found in humans (L-, T-, and I-plastin), LPL is exclusively expressed in cells of hematopoietic origin, where it can act as an actin cross-linker by promoting actin bundling. The actin-bundling activity of LPL is known to be calcium-dependent, where increasing calcium concentrations inhibit the formation of actin-bundles[9][10].

In assay [3] the test system is actin. As to conditions: in vitro; cited from earlier work. The source says: LPL is comprised of two N-terminal EF-hand motifs (head-piece domain), which are homologous to a single domain of calmodulin (CaM) (34.7% identical), followed by two actin-binding domains (ABDs)[5]. Each ABD consists of two independently folded calponin homology (CH) domains. While many signaling and cytoskeletal proteins share these CH domains, plastins are the only known proteins to have two tandem ABDs[31][32][33]. The four CH domains are each folded into a compact globular shape where the ABD1 and ABD2 are arranged back-to-back[34][35]. Each ABD can bind an actin-filament, thereby LPL ... || In order to further investigate the role of H5 in the Ca^2+-dependent actin-bundling of LPL, we have performed actin-bundling assays with a series of different LPL constructs (Fig. 4).

In assay [4] the test system is actin. To be noted: compared to the non-phosphorylated LPL protein; cited from earlier work. The source says:
In addition to the Ca^2+ switch, the targeting of LPL to the actin cytoskeleton is also regulated by the phosphorylation of Ser5[41]. Among all three human plastin isoforms, LPL is the only isoform that is currently known to be phosporylated in vivo[40]. Unlike other actin-binding proteins, where phosphorylation usually occurs in the actin-binding domain, LPL phosphorylation seems to take place on the regulatory Ca^2+-binding domain. […] They hypothesized ...

B1: LPL: 70 kDa Ca^2+- and actin-binding protein, full-length human L-plastin (protein)
chain: MARGSVSDEEMMELREAFAKVDTDGNGYISFNELNDLFKAACLPLPGYRVREITENLMATGDLDQDGRISFDEFIKIFHGLKSTDVAKTFRKAINKKEGICAIGGTSEQSSVGTQHSYSEEEKYAFVNWINKALENDPDCRHVIPMNPNTNDLFNAVGDGIVLCKMINLSVPDTIDERTINKKKLTPFTIQENLNLALNSASAIGCHVVNIGAEDLKEGKPYLVLGLLWQVIKIGLFADIELSRNEALIALLREGESLEDLMKLSPEELLLRWANYHLENAGCNKIGNFSTDIKDSKAYYHLLEQVAPKGDEEGVPAVVIDMSGLREKDDIQRAECMLQQAERLGCRQFVTATDVVRGNPKLNLAFIANLFNRYPALHKPENQDIDWGALEGETREERTFRNWMNSLGVNPRVNHLYSDLSDALVIFQLYEKIKVPVDWNRVNKPPYPKLGGNMKKLENCNYAVELGKNQAKFSLVGIGGQDLNEGNRTLTLALIWQLMRRYTLNILEEIGGGQKVNDDIIVNWVNETLREAKKSSSISSFKDPKISTSLPVLDLIDAIQPGSINYDLLKTENLNDDEKLNNAKYAISMARKIGARVYALPEDLVEVNPKMVMTVFACLMGKGMKRV
modifications: left off: GST, end not stated, cleaved
As for B1, the “Amount of actin found in the pellet” value in assay [1] (in the presence of Ca^2+ (0.1 mM CaCl2)) is listed as ~ 50%; in assay [1] (in the presence of EGTA, 5 mM EGTA), ~ 90%. The “Amount of LPL found in the pellet” value was ~ 50% in assay [1] (with Ca^2+) and ~ 70% in assay [1] (with EGTA). The “Direct binding to CaM” value in the assay on CaM is “only seen in the absence of Ca^2+”. Further, in assay [2], the “Sensitivity to intracellular Ca^2+-signals” value is given as “optimal Ca^2+-binding affinity to respond to intracellular Ca^2+-signals”.

B2: T-plastin: plastin isoform from solid tissues, such as fibroblasts and epithelial cells (protein, UniProt P13797 1-630, looked up)
Plastin-3: MDEMATTQISKDELDELKEAFAKVDLNSNGFICDYELHELFKEANMPLPGYKVREIIQKLMLDGDRNKDGKISFDEFVYIFQEVKSSDIAKTFRKAINRKEGICALGGTSELSSEGTQHSYSEEEKYAFVNWINKALENDPDCRHVIPMNPNTDDLFKAVGDGIVLCKMINLSVPDTIDERAINKKKLTPFIIQENLNLALNSASAIGCHVVNIGAEDLRAGKPHLVLGLLWQIIKIGLFADIELSRNEALAALLRDGETLEELMKLSPEELLLRWANFHLENSGWQKINNFSADIKDSKAYFHLLNQIAPKGQKEGEPRIDINMSGFNETDDLKRAESMLQQADKLGCRQFVTPADVVSGNPKLNLAFVANLFNKYPALTKPENQDIDWTLLEGETREERTFRNWMNSLGVNPHVNHLYADLQDALVILQLYERIKVPVDWSKVNKPPYPKLGANMKKLENCNYAVELGKHPAKFSLVGIGGQDLNDGNQTLTLALVWQLMRRYTLNVLEDLGDGQKANDDIIVNWVNRTLSEAGKSTSIQSFKDKTISSSLAVVDLIDAIQPGCINYDLVKSGNLTEDDKHNNAKYAVSMARRIGARVYALPEDLVEVKPKMVMTVFACLMGRGMKRV
As for B2, the “Sensitivity to intracellular Ca^2+-signals” value in assay [2] is reported as “relatively insensitive”.

B3: ABD1: actin-binding domain 1 of LPL (residues 113–379) (protein, UniProt P13796 113-379, looked up, fragment)
chain: GTQHSYSEEEKYAFVNWINKALENDPDCRHVIPMNPNTNDLFNAVGDGIVLCKMINLSVPDTIDERTINKKKLTPFTIQENLNLALNSASAIGCHVVNIGAEDLKEGKPYLVLGLLWQVIKIGLFADIELSRNEALIALLREGESLEDLMKLSPEELLLRWANYHLENAGCNKIGNFSTDIKDSKAYYHLLEQVAPKGDEEGVPAVVIDMSGLREKDDIQRAECMLQQAERLGCRQFVTATDVVRGNPKLNLAFIANLFNRYPALHK
modifications: actin-binding domain 1
With B3, the “Actin binding of ABD1 relative to ABD2” value in the assay on actin [3] is reported as “an order of magnitude stronger than ABD2; also recorded: ten times stronger than ABD2”.

B4: S5E mutant: LPL S5E mutant of Janji and coworkers (protein, UniProt P13796 2-627, looked up, variant S5E)
Plastin-2: ARGEVSDEEMMELREAFAKVDTDGNGYISFNELNDLFKAACLPLPGYRVREITENLMATGDLDQDGRISFDEFIKIFHGLKSTDVAKTFRKAINKKEGICAIGGTSEQSSVGTQHSYSEEEKYAFVNWINKALENDPDCRHVIPMNPNTNDLFNAVGDGIVLCKMINLSVPDTIDERTINKKKLTPFTIQENLNLALNSASAIGCHVVNIGAEDLKEGKPYLVLGLLWQVIKIGLFADIELSRNEALIALLREGESLEDLMKLSPEELLLRWANYHLENAGCNKIGNFSTDIKDSKAYYHLLEQVAPKGDEEGVPAVVIDMSGLREKDDIQRAECMLQQAERLGCRQFVTATDVVRGNPKLNLAFIANLFNRYPALHKPENQDIDWGALEGETREERTFRNWMNSLGVNPRVNHLYSDLSDALVIFQLYEKIKVPVDWNRVNKPPYPKLGGNMKKLENCNYAVELGKNQAKFSLVGIGGQDLNEGNRTLTLALIWQLMRRYTLNILEEIGGGQKVNDDIIVNWVNETLREAKKSSSISSFKDPKISTSLPVLDLIDAIQPGSINYDLLKTENLNDDEKLNNAKYAISMARKIGARVYALPEDLVEVNPKMVMTVFACLMGKGMKRV
On to B4, for which the Actin bundling activity result in the assay with actin [4] is “increased actin bundling activity”.
